Data published in the supplement of paper PMC9112550, “Optimization of the antimicrobial peptide Bac7 by deep mutational scanning” (BMC Biology, 2022).

Tested on: Escherichia coli TOP10
Assay: shrunken log2 fold change of peptide-encoding DNA abundance (4.5 h post-induction vs induction); higher = less antimicrobial activity (less host growth inhibition)
Settings: time post-induction: 4.5 h; library: site-saturation at positions 5, 18, 19, 20
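Also: peptides expressed intracellularly from a pBAD plasmid library in pooled LB shake-flask culture, induced with 0.3% L-arabinose, DNA abundance read by NGS, three biological replicates, DESeq2 with apeglm shrinkage.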

| Sequence | shrunken log2 fold change |
| --- | --- |
| RRIRKRPPRLPRPRPRPIYKPRP | -0.0701 |
| RRIRHRPPRLPRPRPRPSNIPRP | -0.332 |
| RRIRIRPPRLPRPRPRPFENPRP | -0.00783 |
| RRIRTRPPRLPRPRPRPDCGPRP | 0.759 |
| RRIRSRPPRLPRPRPRPPLNPRP | 0.0261 |
| RRIRIRPPRLPRPRPRPERQPRP | 0.0212 |
| RRIRGRPPRLPRPRPRPAMDPRP | 0.491 |
| RRIRFRPPRLPRPRPRPLWDPRP | -0.119 |
| RRIRKRPPRLPRPRPRPVCPPRP | 0.0175 |
| RRIRMRPPRLPRPRPRPEPKPRP | 2.51 |
| RRIRVRPPRLPRPRPRPWNPPRP | -0.0803 |
| RRIRMRPPRLPRPRPRPVPIPRP | 0.0109 |
| RRIRVRPPRLPRPRPRPKGYPRP | -0.0404 |
| RRIRLRPPRLPRPRPRPKHCPRP | -0.207 |
| RRIRDRPPRLPRPRPRPNFSPRP | -0.0622 |
| RRIRIRPPRLPRPRPRPYSIPRP | -0.129 |
| RRIRGRPPRLPRPRPRPPDPPRP | 1.57 |
| RRIRRRPPRLPRPRPRPYQEPRP | -0.259 |
| RRIRGRPPRLPRPRPRPYWRPRP | -0.104 |
| RRIRVRPPRLPRPRPRPVWLPRP | 0.276 |
| RRIRRRPPRLPRPRPRPELQPRP | 0.212 |
| RRIRTRPPRLPRPRPRPPKLPRP | -0.0543 |
| RRIRMRPPRLPRPRPRPYSMPRP | -0.245 |
| RRIRLRPPRLPRPRPRPDFRPRP | 0.0254 |
| RRIRDRPPRLPRPRPRPRAPPRP | 0.359 |

| Sequence | shrunken log2 fold change |
| --- | --- |
| RRIRYRPPRLPRPRPRPHKNPRP | -1.06 |
| RRIRGRPPRLPRPRPRPMLFPRP | 0.935 |
| RRIRERPPRLPRPRPRPMNHPRP | -0.811 |
| RRIRPRPPRLPRPRPRPRGWPRP | 1.12 |
| RRIRVRPPRLPRPRPRPNNNPRP | -0.661 |
| RRIRQRPPRLPRPRPRPTYFPRP | -0.0458 |
| RRIRLRPPRLPRPRPRPFLWPRP | -0.314 |
| RRIRTRPPRLPRPRPRPKINPRP | -0.325 |
| RRIRYRPPRLPRPRPRPWRRPRP | -0.104 |
| RRIRKRPPRLPRPRPRPTVKPRP | 0.19 |
| RRIRHRPPRLPRPRPRPSNWPRP | -0.106 |
| RRIRERPPRLPRPRPRPIKDPRP | -0.168 |
| RRIRLRPPRLPRPRPRPSKDPRP | -0.364 |
| RRIRRRPPRLPRPRPRPEDRPRP | -0.154 |
| RRIRSRPPRLPRPRPRPIRPPRP | -0.157 |
| RRIRDRPPRLPRPRPRPVITPRP | 0.0916 |
| RRIRHRPPRLPRPRPRPRSRPRP | -0.132 |
| RRIRRRPPRLPRPRPRPHNDPRP | 1.99 |
| RRIRFRPPRLPRPRPRPQCLPRP | -0.0767 |
| RRIRNRPPRLPRPRPRPYEFPRP | 0.121 |
| RRIRTRPPRLPRPRPRPLYEPRP | -0.774 |
| RRIRNRPPRLPRPRPRPHPHPRP | -0.576 |
| RRIRERPPRLPRPRPRPLNKPRP | -0.47 |
| RRIRKRPPRLPRPRPRPCFCPRP | 0.0588 |
| RRIRARPPRLPRPRPRPNCCPRP | 0.131 |

| Sequence | shrunken log2 fold change |
| --- | --- |
| RRIRYRPPRLPRPRPRPLKQPRP | -0.0485 |
| RRIRGRPPRLPRPRPRPDCKPRP | 0.577 |
| RRIRFRPPRLPRPRPRPAHCPRP | 0.0781 |
| RRIRERPPRLPRPRPRPGAVPRP | 1.45 |
| RRIRARPPRLPRPRPRPETHPRP | 0.56 |
| RRIRPRPPRLPRPRPRPKRMPRP | 0.139 |
| RRIRNRPPRLPRPRPRPKQAPRP | -0.00865 |
| RRIRFRPPRLPRPRPRPFNMPRP | -0.314 |
| RRIRGRPPRLPRPRPRPMILPRP | -0.0452 |
| RRIRPRPPRLPRPRPRPNHQPRP | -0.251 |
| RRIRPRPPRLPRPRPRPYANPRP | -0.231 |
| RRIRRRPPRLPRPRPRPQFCPRP | -0.0309 |
| RRIRCRPPRLPRPRPRPNWFPRP | -0.201 |
| RRIRYRPPRLPRPRPRPYRNPRP | -0.0228 |
| RRIRTRPPRLPRPRPRPPPCPRP | 0.292 |
| RRIRHRPPRLPRPRPRPVMIPRP | -0.0805 |
| RRIRIRPPRLPRPRPRPWNDPRP | -0.216 |
| RRIRSRPPRLPRPRPRPKHFPRP | 0.0852 |
| RRIRQRPPRLPRPRPRPNFVPRP | -0.0869 |
| RRIRIRPPRLPRPRPRPHTIPRP | -0.572 |
| RRIRERPPRLPRPRPRPWDAPRP | -0.379 |
| RRIRQRPPRLPRPRPRPYVAPRP | -0.713 |
| RRIRIRPPRLPRPRPRPCGMPRP | 0.0729 |
| RRIRHRPPRLPRPRPRPDFYPRP | -0.609 |
| RRIRLRPPRLPRPRPRPPHEPRP | 0.269 |

| Sequence | shrunken log2 fold change |
| --- | --- |
| RRIRGRPPRLPRPRPRPSCVPRP | 0.499 |
| RRIRSRPPRLPRPRPRPESWPRP | 0.762 |
| RRIRHRPPRLPRPRPRPYSRPRP | -0.0123 |
| RRIRVRPPRLPRPRPRPTFEPRP | -0.106 |
| RRIRHRPPRLPRPRPRPAEVPRP | -0.0107 |
| RRIRQRPPRLPRPRPRPPQAPRP | 0.718 |
| RRIRWRPPRLPRPRPRPAMRPRP | 1.1 |
| RRIRVRPPRLPRPRPRPAPSPRP | 0.342 |
| RRIRWRPPRLPRPRPRPIFQPRP | -0.103 |
| RRIRMRPPRLPRPRPRPGATPRP | 1.38 |
| RRIRTRPPRLPRPRPRPSEEPRP | 0.0771 |
| RRIRHRPPRLPRPRPRPARGPRP | 0.319 |
| RRIRYRPPRLPRPRPRPARYPRP | -0.000578 |
| RRIRFRPPRLPRPRPRPLMAPRP | -0.581 |
| RRIRERPPRLPRPRPRPGWCPRP | 0.00111 |
| RRIRPRPPRLPRPRPRPLYEPRP | -0.303 |
| RRIRIRPPRLPRPRPRPQMDPRP | -0.258 |
| RRIRIRPPRLPRPRPRPTVTPRP | -0.303 |
| RRIRVRPPRLPRPRPRPNFTPRP | 0.0054 |
| RRIRERPPRLPRPRPRPFESPRP | 0.00731 |
| RRIRNRPPRLPRPRPRPIHWPRP | 0.0944 |
| RRIRDRPPRLPRPRPRPADYPRP | -0.0418 |
| RRIRVRPPRLPRPRPRPLEGPRP | 0.138 |
| RRIRARPPRLPRPRPRPMWAPRP | 0.557 |
| RRIRFRPPRLPRPRPRPHWWPRP | 0.154 |

| Sequence | shrunken log2 fold change |
| --- | --- |
| RRIRDRPPRLPRPRPRPCDTPRP | -0.157 |
| RRIRPRPPRLPRPRPRPPWPPRP | 0.688 |
| RRIRPRPPRLPRPRPRPRWEPRP | 0.444 |
| RRIRERPPRLPRPRPRPRMHPRP | 0.0795 |
| RRIRERPPRLPRPRPRPSFFPRP | 0.221 |
| RRIRFRPPRLPRPRPRPRCMPRP | -0.124 |
| RRIRIRPPRLPRPRPRPTDLPRP | -0.289 |
| RRIRARPPRLPRPRPRPYCVPRP | 0.118 |
| RRIRMRPPRLPRPRPRPKPWPRP | 1.12 |
| RRIRLRPPRLPRPRPRPNSWPRP | -0.0901 |
| RRIRVRPPRLPRPRPRPWGRPRP | 0.0354 |
| RRIRGRPPRLPRPRPRPVLTPRP | 0.834 |
| RRIRGRPPRLPRPRPRPNVDPRP | 0.715 |
| RRIRKRPPRLPRPRPRPDNQPRP | -0.233 |
| RRIRPRPPRLPRPRPRPQFQPRP | -0.192 |
| RRIRGRPPRLPRPRPRPLGMPRP | 0.575 |
| RRIRNRPPRLPRPRPRPYFGPRP | -0.284 |
| RRIRTRPPRLPRPRPRPVHYPRP | 0.0226 |
| RRIRTRPPRLPRPRPRPAKMPRP | -0.0252 |
| RRIRGRPPRLPRPRPRPPAVPRP | 1.27 |
| RRIRPRPPRLPRPRPRPVTNPRP | -0.299 |
| RRIRSRPPRLPRPRPRPWTTPRP | 0.00749 |
| RRIRYRPPRLPRPRPRPALCPRP | -0.0404 |
| RRIRIRPPRLPRPRPRPIYEPRP | -0.107 |
| RRIRERPPRLPRPRPRPRIYPRP | -0.194 |
